Measurements as given in article PMC12752793, “Development of potent Affitin-based bispecific NK cell engagers for the therapy of MSLN-expressing cancers” (Molecular Therapy Oncology, 2025).

How the values were obtained:
[1] = biological target: human mesothelin on the surface of Meso34-MSLN cells (human) (UniProt Q13421)
[2] = biological target: recombinant 302–359 fragment of human mesothelin (hMSLN) (human) (UniProt Q13421); experiment: SPR; Biacore T200; hMSLN 302–359 amine-coupled at about 700 RU on CM5; analytes 12.5 to 200 nM in HBS-EP, single cycle kinetics, 30 μL/min; Langmuir model
[3] = biological target: T1, recombinant 302–359 fragment of human mesothelin (hMSLN) (human, UniProt Q13421 302-359, biotin on the AviTag); experiment: SPR
T1 chain: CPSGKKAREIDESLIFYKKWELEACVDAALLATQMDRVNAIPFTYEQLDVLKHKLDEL

[4] = biological target: human mesothelin on the surface of Meso34-MSLN cells (human) (UniProt Q13421); experiment: flow cytometry on cells; Meso34-MSLN and NK92CD16h cells incubated with increasing concentrations of BiKEs, 30 min at 4°C; streptavidin-PE; one binding site regression
[5] = biological target: T1, recombinant 302–359 fragment of human …; experiment: SPR; bivalent model, kd1
[6] = biological target: recombinant 302–359 fragment of human mesothelin (hMSLN) (human) (UniProt Q13421); experiment: SPR; Biacore T200; hMSLN 302–359 amine-coupled at about 700 RU on CM5; analytes 12.5 to 200 nM in HBS-EP, single cycle kinetics, 30 μL/min; bivalent model; apparent
[7] = biological target: T1, recombinant 302–359 fragment of human …; experiment: SPR; bivalent model, kd2
[8] = biological target: T1, recombinant 302–359 fragment of human …; experiment: SPR; bivalent model, kd1
[9] = biological target: T1, recombinant 302–359 fragment of human …; experiment: SPR; bivalent model, kd2
[10] = biological target: human mesothelin on the surface of Meso34-MSLN cells (human) (UniProt Q13421); experiment: flow cytometry on cells; Meso34 and Meso34-MSLN cells stained with a concentration range of N13 monomer (streptavidin-PE), N13 dimer (anti-6X His Tag-PE) or MORAb-009 (anti-human IgG Fc), 30 min at 4°C; EC50 by one binding site regression
[11] = biological target: T1, recombinant 302–359 fragment of human …; experiment: SPR
[12] = biological target: T2, recombinant 302–359 fragment of human mesothelin (hMSLN) (Homo sapiens, UniProt Q13421, biotin on the AviTag); experiment: SPR; Biacore T200; hMSLN 302–359 amine-coupled at about 700 RU on CM5; analytes 12.5 to 200 nM in HBS-EP, single cycle kinetics, 30 μL/min; Langmuir model; settings: both partners purified
T2 construct: Amine-coupled to a CM5 chip in SPR, captured on NeutrAvidin in ELISA; source: E. coli Origami B with pBirA, purified (Ni-NTA, Superdex 75); not shown: AviTag, C-terminal, kept

[13] = biological target: T1, recombinant 302–359 fragment of human …; experiment: SPR

human mesothelin on the surface of Meso34-MSLN cells (human), sequence (Q13421 other isoform, or with tags, fused parts or gaps): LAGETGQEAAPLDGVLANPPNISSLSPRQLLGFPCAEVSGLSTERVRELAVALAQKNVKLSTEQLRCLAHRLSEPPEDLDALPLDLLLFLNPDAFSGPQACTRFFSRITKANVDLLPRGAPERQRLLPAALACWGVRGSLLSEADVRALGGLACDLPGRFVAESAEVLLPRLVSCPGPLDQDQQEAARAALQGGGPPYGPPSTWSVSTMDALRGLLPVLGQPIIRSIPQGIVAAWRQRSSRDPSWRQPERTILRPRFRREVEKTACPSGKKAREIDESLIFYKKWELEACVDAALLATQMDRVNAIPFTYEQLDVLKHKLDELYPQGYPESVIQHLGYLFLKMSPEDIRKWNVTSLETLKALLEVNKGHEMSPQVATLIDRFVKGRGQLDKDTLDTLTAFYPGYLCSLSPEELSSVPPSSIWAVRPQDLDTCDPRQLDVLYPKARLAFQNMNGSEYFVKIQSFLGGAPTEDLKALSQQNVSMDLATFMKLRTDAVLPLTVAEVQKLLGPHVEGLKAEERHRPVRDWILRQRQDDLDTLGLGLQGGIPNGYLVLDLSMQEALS

B1: C21(N13)1 bispecific NK cell engager (anti-CD16 VHH C21 fused to one N13 Affitin) (designed binder)
chain: MEVQLVESGGELVQAGGSLRLSCAASGLTFSSYNMGWFRRAPGKEREFVASITWSGRDTFYADSVKGRFTISRDNAKNTVYLQMSSLKPEDTAVYYCAANPWPVAAPRSGTYWGQGTQVTVSSPSGQAGAAASESLFVSNHAYGSATKVKFKVFGEEKEVDISKIKHVDRMNWRGLLYIRFSYDDNGKLGHGWVSEKDAPKELLEKLKKLNRGSHHHHHHGSGLNDIFEAQKIEWHE
modifications: biotin on the AviTag
Work on B1 yielded an ED50 of NK92CD16h-mediated 51Cr cytotoxicity on Meso34-MSLN cells, effector/target ratio 10:1 [1] of 5.62 nM, an ED50 of NK92CD16h-mediated 51Cr cytotoxicity on Meso34-MSLN cells, effector/target ratio 20:1 [1] of 3.11 nM and a maximal NK92CD16h-mediated 51Cr cytotoxicity on Meso34-MSLN cells, effector/target ratio 10:1 [1] of 19.2%. The maximal NK92CD16h-mediated 51Cr cytotoxicity on Meso34-MSLN cells, effector/target ratio 20:1 [1] was 26.1%, the Kd [2] was 67.1 nM and the koff [3] was 0.0385 s⁻¹. The affinity for Meso34-hMSLN cells [4] was over 100 nM.

B2: C21(N13)2 bispecific NK cell engager (anti-CD16 VHH C21 fused to a homodimer of N13 Affitin) (designed binder)
chain: MEVQLVESGGELVQAGGSLRLSCAASGLTFSSYNMGWFRRAPGKEREFVASITWSGRDTFYADSVKGRFTISRDNAKNTVYLQMSSLKPEDTAVYYCAANPWPVAAPRSGTYWGQGTQVTVSSPSGQAGAAASESLFVSNHAYGSATKVKFKVFGEEKEVDISKIKHVDRMNWRGLLYIRFSYDDNGKLGHGWVSEKDAPKELLEKLKPSGQAGAAASESLFVSNHAYGSGATKVKFKVFGEEKEVDISKIKHVDRMNWRGLLYIRFSYDDNGKLGHGWVSEKDAPKELLEKLKLNRGSHHHHHHGSGLNDIFEAQKIEWHE
modifications: biotin on the AviTag
B2 gave a koff [5] of 0.136 s⁻¹, an ED50 of NK92CD16h-mediated 51Cr cytotoxicity on Meso34-MSLN cells, effector/target ratio 10:1 [1] of 0.325 nM and an ED50 of NK92CD16h-mediated 51Cr cytotoxicity on Meso34-MSLN cells, effector/target ratio 20:1 [1] of 0.277 nM. For the same binder, the maximal NK92CD16h-mediated 51Cr cytotoxicity on Meso34-MSLN cells, effector/target ratio 10:1 [1] was 22.6%, the maximal NK92CD16h-mediated 51Cr cytotoxicity on Meso34-MSLN cells, effector/target ratio 20:1 [1] was 38.9% and the Kd [6] was 0.831 nM. For the same binder, the EC50 [4] was 7.45 nM and the koff [7] was 0.000762 s⁻¹.

B3: N13 Affitin homodimer (two N13 Affitins linked by a 20-amino-acid HMA linker) (designed binder)
chain: MRGSHHHHHHGSATKVKFKVFGEEKEVDISKIKHVDRMNWRGLLYIRFSYDDNGKLGHGWVSEKDAPKELLEKLKPSGQAGAAASESLFVSNHAYGSGATKVKFKVFGEEKEVDISKIKHVDRMNWRGLLYIRFSYDDNGKLGHGWVSEKDAPKELLEKLKLGSGLNDIFEAQKIEWHE
B3 was tested, and the koff [8] was 0.0573 s⁻¹, the koff [9] was 0.000767 s⁻¹ and the EC50 [10] was 2.22 nM. It also gave a fold increase in affinity for cellular hMSLN against the N13 monomer [10] of 1000 fold, a Kd [6] of 0.57 nM and a fold reduction of the dissociation rate constant (kd) against the N13 monomer [6] of 84 fold.

B4: N23 Affitin (monomer) (designed binder)
chain: MRGSHHHHHHGSATKVKFKLFGEEKEVDISKIKRVERRAIQAASYIAFAYDDNGKIGHGWVSEKDAPKELLEKLKLN
modifications: biotin on the AviTag
Binder B4 has a koff [11] of 0.288 s⁻¹.

B5: N7 Affitin (monomer) (designed binder)
chain: MRGSHHHHHHGSATKVKFKYMGEEKEVDISKIKVVSRSVGPLGSFILFQYDDNGKMGRGFVSEKDAPKELLEKLKLN
modifications: biotin on the AviTag
Binder B5 has a koff [11] of 0.214 s⁻¹.

B6: VHH A1 (anti-hMSLN VHH) (VHH)
VHH: DVQLQESGGGLVHPGGSLRLSCAASGIDLSLYRMRWYRQAPGKERDLVALITDDGTSYYEDSVKGRFTITRDNPSNKVFLQMNSLKPEDTAVYYCNAETPLSPVNYWGQGTQVTVSS
For B6, the Kd [12] was 15.6 nM and the koff [13] was 0.804 s⁻¹.

B7: N18 Affitin (monomer) (designed binder)
chain: MRGSHHHHHHGSATKVKFKLFGEEKEVDISKIKKVERRTFHMDKTIVFMYDDNGKSGYGWVSEKDAPKELLEKLKLN
modifications: biotin on the AviTag
In the case of B7, the koff [11] is reported as 0.073 s⁻¹.

B8: N13 Affitin (monomer) (designed binder)
chain: MRGSHHHHHHGSATKVKFKVFGEEKEVDISKIKHVDRMNWRGLLYIRFSYDDNGKLGHGWVSEKDAPKELLEKLKLN
modifications: biotin on the AviTag
Work on B8 yielded a koff [11] of 0.0647 s⁻¹.
